This assay deals with influenza hemagglutinin full length protein, A/New-York/55/04 (H3N2) (influenza A virus A/New-York/55/04 (H3N2)). The assay can be described thus: SPR. On the technique in general: In SPR one partner is held on a chip, and binding of the other changes the refractive index at the surface.

Experimental findings from paper PMC8231982 are described below.

The pKd is −log10 of the Kd, conventionally taken in molar units. Low values mean a high Kd, high ones a low Kd.

pKd: −log10 of the molar value.

wild-type cyanovirin-N (WT CV–N), sequence (P81180 whole entry): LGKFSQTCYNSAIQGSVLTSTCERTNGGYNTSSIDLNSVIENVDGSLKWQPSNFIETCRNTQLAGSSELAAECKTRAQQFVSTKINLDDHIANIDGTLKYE

Substance “wild-type cyanovirin-N (WT CV–N) (from UniProt P81180 1-101) (natural protein)” had a pKd of 8.24.
